Numbering of substitutions follows the chain as printed. Blank lines part the entries; values can stand above or below the molecule they belong to.
Experiments:
human PD-L1.his Protein [1] = target: T1, human PD-L1.his Protein (human, UniProt Q9NZQ7 19-238, limits assumed); experiment: ELISA, coated human PD-L1.his, absorbance at 450 nm; lower table
T1 construct: Produced in-house (Genscript); also called HuPD-L1-his; not shown: his tag

human PD-L1.his Protein [2] = target: T1, human PD-L1.his Protein; experiment: ELISA, coated human PD-L1.his, absorbance at 450 nm; upper table
human PD-L1.his Protein [3] = target: T1, human PD-L1.his Protein; experiment: GATOR instrument kinetics, HuPD-L1-his
human PD-L1 on CHO cells [4] = target: T2, human PD-L1 on CHO cells (human, UniProt Q9NZQ7 19-290); experiment: cell-based or functional assay
human PD-L1.his Protein [5] = target: T1, human PD-L1.his Protein; experiment: GATOR instrument kinetics, HuPD-L1-his; reference parental antibody AHP01679
human PD-L1 on CHO cells [6] = target: T2, human PD-L1 on CHO cells; experiment: cell-based or functional assay; remark: listed apart in the source
human PD-L1.his Protein [7] = target: T1, human PD-L1.his Protein; experiment: ELISA, coated human PD-L1.his, absorbance at 450 nm
Experimental: To evaluate the fully human IgGs binding activity to human PD-L1 protein, ELISA EC50 determination was performed. Briefly, human PD-L1.his protein was coated with 0.5 μg/ml in CBS, 100 μl/well at 4° C., incubated for overnight. Washed three times and blocking with 3% BSA-PBS at 37° C. for 1 hour. Then diluted fully human IgGs in 1% BSA-PBS were added to the blocked wells. […] Incubation at room temperature for 2 hours. […] The plates were washed for additional 6 times and the substrate solution were added to the wells for developing reaction. The absorption was measured at 450nm using a spectrometer.

human PD-L1.his Protein [8] = target: T1, human PD-L1.his Protein; experiment: SPR Biacore T200, antibody Fc-captured, antigen as analyte
Experimental: The affinity of purified antibody binding to antigen was individually determined using a Surface Plasmon Resonance (SPR) biosensor, BiacoreT200 (GE Healthcare). Antibodies were immobilized on the sensor chip through Fc capture method. Antigen was used as the analyte. The data of dissociation (kd) and association (ka) rate constants were obtained using Biacore T200 evaluation software. The equilibrium dissociation constants (KD) were calculated from the ratio of kd over ka.

T2 sequence (Q9NZQ7 19-290): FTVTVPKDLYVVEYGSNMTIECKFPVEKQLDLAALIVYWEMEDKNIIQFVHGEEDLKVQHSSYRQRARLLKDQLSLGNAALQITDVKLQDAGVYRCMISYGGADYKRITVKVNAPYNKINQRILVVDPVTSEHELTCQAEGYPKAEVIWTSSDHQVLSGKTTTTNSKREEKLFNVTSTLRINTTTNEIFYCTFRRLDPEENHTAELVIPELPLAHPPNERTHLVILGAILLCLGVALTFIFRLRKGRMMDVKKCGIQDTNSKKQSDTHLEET
T1 sequence (Q9NZQ7 19-238 limits assumed): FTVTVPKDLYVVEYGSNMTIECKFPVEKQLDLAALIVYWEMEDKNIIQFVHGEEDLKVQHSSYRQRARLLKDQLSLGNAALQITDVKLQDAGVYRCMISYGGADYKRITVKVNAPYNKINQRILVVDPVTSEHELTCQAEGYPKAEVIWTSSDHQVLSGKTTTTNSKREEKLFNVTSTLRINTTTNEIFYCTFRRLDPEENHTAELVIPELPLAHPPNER

- absorbance at 0.00564503 ng/ml (human PD-L1.his Protein [1]): 0.058
- absorbance at 0.01693509 ng/ml (human PD-L1.his Protein [1]): 0.067
- absorbance at 0.05080526 ng/ml (human PD-L1.his Protein [1]): 0.061
- absorbance at 0.15241579 ng/ml (human PD-L1.his Protein [1]): 0.064
- absorbance at 0.45724737 ng/ml (human PD-L1.his Protein [1]): 0.057
- absorbance at 1.37174211 ng/ml (human PD-L1.his Protein [1]): 0.065
- absorbance at 12.345679 ng/ml (human PD-L1.his Protein [1]): 0.064
- absorbance at 37.037037 ng/ml (human PD-L1.his Protein [1]): 0.059
- absorbance at 111.111111 ng/ml (human PD-L1.his Protein [1]): 0.067
- absorbance at 333.333333 ng/ml (human PD-L1.his Protein [1]): 0.059
- absorbance at 1000 ng/ml (human PD-L1.his Protein [1]): 0.081
- absorbance at 1.3717 ng/ml (human PD-L1.his Protein [2]): 0.078
- absorbance at 4.1152 ng/ml (human PD-L1.his Protein [2]): 0.052
- absorbance at 37.0370 ng/ml (human PD-L1.his Protein [2]): 0.052
- absorbance at 111.1111 ng/ml (human PD-L1.his Protein [2]): 0.054
- absorbance at 333.3333 ng/ml (human PD-L1.his Protein [2]): 0.058
- absorbance at 1000 ng/ml (human PD-L1.his Protein [2]): 0.069
- absorbance at 3000 ng/ml (human PD-L1.his Protein [2]): 0.121
Molecule: negative control human IgG (antibody)

- Kd (human PD-L1.his Protein [3]): 0.351 nM
- koff (human PD-L1.his Protein [3]): 0.00132 s⁻¹
- kon (human PD-L1.his Protein [3]): 3.77e+06 M⁻¹ s⁻¹
- EC50 (read off the curve), PD-1/PD-L1 blockade luciferase reporter assay [panel E] (human PD-L1 on CHO cells [4]): ~0.2 µg/mL
- EC50, PD-1/PD-L1 blockade luciferase reporter assay [panel E] (human PD-L1 on CHO cells [4]): 0.153 µg/mL
- KD (Parental Ab)/KD (Candidate Ab) (human PD-L1.his Protein [5]): 1 fold
- EC50 (assay not named; EC50 is defined in paragraph 62 as the concentration of antibody required to block binding of PD-1/PD-L1 by 50%) (human PD-L1 on CHO cells [6]): 0.163 µg/mL
- EC50 (human PD-L1.his Protein [7]): 3.34 ng/mL
- Kd (human PD-L1.his Protein [8]): 4.09 nM
- koff (human PD-L1.his Protein [8]): 0.00259 s⁻¹
- kon (human PD-L1.his Protein [8]): 635000 M⁻¹ s⁻¹
B1: AHP01679 (antibody, human IgG1, lambda, V domains shown)
VH: EVQLVQSGAEVKKPGSSVKVSCKASGGTFSSYAISWVRQAPGQGLEWMGRIIPILGIANYAQKFQGRVTITADKSTSTAYMELSSLRSEDTAVYYCTTFIQQWLYAFDIWGQGTMVTVSS
VL: QAVLTQPSSVSGAPGQRVTISCTGSSSNIGAGYDVHWYQQLPGTAPKLLIYGNNNRPSGVPDRFSGSKSGTSASLAITGLQAEDEADYYCQSYDSSLSGSVFGGGTKLTVLG
notes: Fully human full-length IgG (IgG1 constant region, lambda light chain); also called Parental Ab; parental antibody

- Kd (human PD-L1.his Protein [3]): 0.0338 nM
- koff (human PD-L1.his Protein [3]): 0.000145 s⁻¹
- kon (human PD-L1.his Protein [3]): 4.29e+06 M⁻¹ s⁻¹
- KD (Parental Ab)/KD (Candidate Ab) (human PD-L1.his Protein [5]): 10.4 fold
- EC50 (assay not named; EC50 is defined in paragraph 62 as the concentration of antibody required to block binding of PD-1/PD-L1 by 50%) (human PD-L1 on CHO cells [6]): 0.0966 µg/mL
B2: QJ001-45 (antibody, human IgG1, lambda, V domains shown)
VH: B1 VH with I100F
VL: B1 VL with T23F, Q91G
notes: also called P02897

Reference: patent US20250223361A1 (MABTREE BIOLOGICS, published 2025)
